# Data from patent US6635429B1, “Heterodimeric nuclear receptors proteins, genes encoding same, and usage thereof” (Institut National de la Sante et de la Recherche Medicale, priority 1992, dated 2003).
# T1: hRAR-γ binding to β-RARE (Homo sapiens, UniProt P13631)
# T1 construct: fused to the amino terminal amino acid of full length hRAR-γ; 14 amino acids from the parental vector pEt3a (bacterially expressed preparation only) (N); made in house; host or cells: E. coli BL21 (DE3) plysS; also rVV-infected HeLa cells, rBV-infected Sf9 cells, yeast (ubiquitin fusion) and rabbit reticulocyte lysate
# T1 sequence (P13631 1-454): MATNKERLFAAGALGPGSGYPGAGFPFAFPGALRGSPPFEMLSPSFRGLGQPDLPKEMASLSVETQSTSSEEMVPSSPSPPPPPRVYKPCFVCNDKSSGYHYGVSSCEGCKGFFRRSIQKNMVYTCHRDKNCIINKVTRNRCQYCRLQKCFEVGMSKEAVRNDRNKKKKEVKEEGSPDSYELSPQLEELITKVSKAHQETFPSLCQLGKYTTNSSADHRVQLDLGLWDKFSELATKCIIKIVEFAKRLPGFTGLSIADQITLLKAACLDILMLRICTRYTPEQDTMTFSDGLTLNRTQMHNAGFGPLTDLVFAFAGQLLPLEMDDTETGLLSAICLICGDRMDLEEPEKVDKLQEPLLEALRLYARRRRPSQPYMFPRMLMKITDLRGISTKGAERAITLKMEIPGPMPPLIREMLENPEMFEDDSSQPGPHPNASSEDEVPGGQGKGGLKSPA
# T1 sequence (P28702 1-533 partner): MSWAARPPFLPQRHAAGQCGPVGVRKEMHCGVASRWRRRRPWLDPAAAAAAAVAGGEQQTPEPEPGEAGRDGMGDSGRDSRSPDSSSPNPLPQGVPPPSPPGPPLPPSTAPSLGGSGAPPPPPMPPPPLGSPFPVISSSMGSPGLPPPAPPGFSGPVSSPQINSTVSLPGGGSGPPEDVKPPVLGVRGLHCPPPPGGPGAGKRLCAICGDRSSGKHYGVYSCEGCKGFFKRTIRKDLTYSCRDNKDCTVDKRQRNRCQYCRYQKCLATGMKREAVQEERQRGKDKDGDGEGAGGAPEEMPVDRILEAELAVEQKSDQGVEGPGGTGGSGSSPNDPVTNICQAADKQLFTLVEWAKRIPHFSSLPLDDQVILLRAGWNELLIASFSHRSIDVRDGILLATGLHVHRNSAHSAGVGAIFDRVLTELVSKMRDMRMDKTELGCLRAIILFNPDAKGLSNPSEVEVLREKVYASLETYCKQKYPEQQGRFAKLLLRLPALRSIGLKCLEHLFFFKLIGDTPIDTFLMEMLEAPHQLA
# Biological target: T1, hRAR-γ binding to β-RARE
# Test: Gel retardation assay of RAR binding to β-RARE (RBF complementation)
# Conditions: RBF activity, complementation gel retardation with bacterially-expressed hRAR-γ
# Description: For gel retardation experiments comparing RAR and RXR subtypes and deletion mutants, all proteins were produced by in vitro translation in the presence of [^35S]methionine.
# Purification of rVV- and rBV-expressed hRAR-γ is being described elsewhere (Chen et al., manuscript in preparation). […] All steps were carried out at 4° C. and RBF activity was monitored through all purification steps by a complementation gel retardation assay using bacterially-expressed hRAR-γ as described above. […] The column was washed with equilibration buffer until the A280 of the eluent returned to baseline. […] The column was washed with equilibration buffer until the A280 of the eluent returned to baseline and then with 4 column volumes of buffer A containing 0.45 M ammonium sulfate and 50 mM KCl. The column was then eluted with an 18 ml linear gradient from 0.45 to 0 M ammonium sulfate in buffer A containing 50 mM KCl.
molecule,measurement,value
"HAP-TSK: hydroxylapatite column-purified HeLa cell RBF, apparently homogeneous ~64 kDa polypeptide, predominantly hRXR-β (protein, UniProt P28702 1-533, looked up) Retinoic acid receptor …: MSWAARPPFLPQRHAAGQCGPVGVRKEMHCGVASRWRRRRPWLDPAAAAAAAVAGGEQQTPEPEPGEAGRDGMGDSGRDSRSPDSSSPNPLPQGVPPPSPPGPPLPPSTAPSLGGSGAPPPPPMPPPPLGSPFPVISSSMGSPGLPPPAPPGFSGPVSSPQINSTVSLPGGGSGPPEDVKPPVLGVRGLHCPPPPGGPGAGKRLCAICGDRSSGKHYGVYSCEGCKGFFKRTIRKDLTYSCRDNKDCTVDKRQRNRCQYCRYQKCLATGMKREAVQEERQRGKDKDGDGEGAGGAPEEMPVDRILEAELAVEQKSDQGVEGPGGTGGSGSSPNDPVTNICQAADKQLFTLVEWAKRIPHFSSLPLDDQVILLRAGWNELLIASFSHRSIDVRDGILLATGLHVHRNSAHSAGVGAIFDRVLTELVSKMRDMRMDKTELGCLRAIILFNPDAKGLSNPSEVEVLREKVYASLETYCKQKYPEQQGRFAKLLLRLPALRSIGLKCLEHLFFFKLIGDTPIDTFLMEMLEAPHQLA",Specific Activity,"7,750,000 cpm/μg"
